From patent US20030175288A1 (GREEN PEPTIDE, published 2003)

B1: P7 (peptide)
peptide: CLYGNVEKV
notes: synthetic peptide; also called gene 2 (HNRPL) 404-412
B2: P12 (peptide)
peptide: MLPLECQYL
notes: synthetic peptide; also called gene 3 (WHSC2) 157-165
B3: P14 (peptide)
peptide: RIIYDRKFL
notes: synthetic peptide; also called EIF4EBP1 51-59; gene 4 51-59
B4: P15 (peptide)
peptide: IIYDRKFLM
notes: synthetic peptide; also called gene 4 (EIF4EBP1) 52-60
B5: P11 (peptide)
peptide: ILGELREKV
notes: synthetic peptide; also called gene 3 (WHSC2) 141-149
B6: P1 (peptide)
peptide: RLQEWCSVI
notes: synthetic peptide; positions counted on the gene 1 product; also called UBE2V 43-51; gene 1 43-51
B7: P5 (peptide)
peptide: ILPRKHHRI
notes: synthetic peptide; also called gene 1 (UBE2V) 208-216
B8: P9 (peptide)
peptide: NVLHFFNAPL
notes: synthetic peptide; also called gene 2 (HNRPL) 501-510
B9: P13 (peptide)
peptide: TLLRKERGV
notes: synthetic peptide; also called gene 3 (WHSC2) 267-275
B10: P16 (peptide)
peptide: QILKGLLFL
notes: synthetic peptide; also called gene 5 (ppMAPkkk) 290-298
B11: P3 (peptide)
peptide: LIADFLSGL
notes: synthetic peptide; also called gene 1 (UBE2V) 85-93
B12: P17 (peptide)
peptide: GLLFLHTRT
notes: synthetic peptide; also called gene 5 (ppMAPkkk) 294-302
B13: P2 (peptide)
peptide: LLLLARWEDT
notes: synthetic peptide; also called gene 1 (UBE2V) 64-73

The binders below were run against T1, HLA-A0201 molecule on T2 cells (human) (assay: T2 cells with 10 µM peptide, HLA-A2 stained with mAb BB7.2, flow cytometry (relative MFI)).
T1 construct: MHC class I molecule without peptide on T2 cells; detected with anti-HLA-A2 mAb BB7.2; also called HLA-A2 molecule
Procedure: Binding activity of the peptide to the HLA-A0201 molecule was tested using a T2 cell mutant strain (Cancer Res., 54:1071-1076, 1994.) The T2 cell expresses the HLA-A2 molecule on a cell surface without binding to a peptide, because of deficiency of TAP. Specifically, the synthesized peptide (10 μM) and the T2 cells were incubated at 26° C. for 3 h and, subsequently, incubated in 5% CO₂ and 95% air at 37° C. for 3 h. Thus, T2 cells, on whose surface the peptide was presented by HLA-A2, were obtained.

For B1, which MFI is on record?
Its MFI is 783.

Which MFI does the source give for B2 here?
Its MFI is 780.

ALVEFEDVL (synthetic peptide) [P6] was tested. Which MFI did it give?
Its MFI is 819.

With B3 as the binder, how does the MFI read?
The MFI was 591.

How did the MFI turn out when QQLCVYWTV (synthetic peptide) [P19] was run?
Its MFI is 775.

For B4, which MFI is on record?
Its MFI is 789.

Which MFI does the source give for B5 here?
Its MFI is 1090.

B6 was tested. Which MFI did it give?
The MFI was 571.

DLLSHAFFA (synthetic peptide) [P18] was tested. Which MFI did it give?
Its MFI is 657.

B7 was tested. Which MFI did it give?
The MFI was 637.

Which MFI does the source give for B8 here?
The MFI was 832.

Which MFI does the source give for B9 here?
The MFI was 656.

With B10 as the binder, how does the MFI read?
Its MFI is 887.

B11 was tested. Which MFI did it give?
The MFI was 910.

How did the MFI turn out when B12 was run?
The MFI was 660.

With B13 as the binder, how does the MFI read?
Its MFI is 607.

LLQDWHVIL (synthetic peptide) [P4] was tested. Which MFI did it give?
Its MFI is 1010.
